Test results reported in a protein production outcome set (Wang et al. 2014).

Assay: label from the status in PepcDB records

Sequence	protein production
MSVDDSADVVVVGAGPAGSAAAAWAARAGRDVLVIDTATFPRDKPCGDGLTPRAVAELHQLGLGKWLADHIRHRGLRMSGFGGEVEVDWPGPSFPSYGSAVARLELDDRIRKVAEDTGARMLLGAKAVAVHHDSSRRVVSLTLADGTEVGCRQLIVADGARSPLGRKLGRRWHRETVYGVAVRGYLSTAYSDDPWLTSHLELRSPDGAVLPGYGWIFPLGNGEVNIGVGALSTSRRPADLALRPLISYYTDLRRDEWGFTGQPRAVSSALLPMGGAVSGVAGSNWMLIGDAAACVNPLNGEGIDYGLETGRLAAELLDSRDLARLWPSLLADRYGRGFSVARRLALLLTFPRFLPTTGPITMRSTALMNIAVRVMSNLVTDDDRDWVARVWRGGGQLSRLVDRRPPFS	failed
MKNLKNKHFALLYLVLFLVLAKLSPFIITALIMGLYLSIIIDYVARFLEVFIKKPRVLPRVISNVLVFLTIAYSAVNFFPVIVREAQKVFSEIDRIRSGLENIDIPGWLSSILSSISASFSEGALSLVNKIVGYVPSFITAAILIVITAFIVSSLKRLIKENVHYLFPTNPSDGKEFLKTTYTEFERFVGGQVLVAIFVGLFVGFGAFIFKIPSAFFLGMLAFVTDFVPYLGVVISAIPLLMLAFSVHGLSGLLIGTIILVAANQLEMWVLAPKIQSNTLNVHWFIILIMILILGDLFSFGGVLIALPFLIFLKNFWKQYVMGG	failed
MMIARTLSIFIGTLLLATCSIPTRLNIPTIAITDHPKYKLLLILIDGLRADALEHGQAPQLARLASDGVHARWMTPSYPALTLPNAYTLITGLRPDHHGIVHNTMEDPLLGAFESERQEAISNGRWWGGEPIWVSAEHAGIRSATFLWPGSEASIAGTRPSRWYAYNKHISADTQITQALRWLNERGPDAPRLVILRFEQVNTAGDNFGPDSPQYAAAVNMIDSAIGRLIDSLRQHGKLTDTDVIVVSDQGIAPIPGDHAVPLERIVQLSDVHVVSDGQVLGITPLPGHESKVEAMVLGAHATYDCWRKQALPTHWHYGTHPRIPNIVCQMHEGWNALSAAQITKRNPLQMGGSSGFDPMLPSMRAVFLANGPSFMPNLLLNPINNVDIYPLLARLLGIAMAPNDGNPRALLQALRTSNTANGYTYSKRNALHLEHHHHHH	failed
MAGLPGSVALIIVATAVIWKGSAYFERAAERLSKYYGLPVAVHGAIVVAVGSSFPEISSVVISTVIHDEFSLGVGAIVGSAIFNLLVIPALAALSSEELRSTRDIVHKDAQFYIISVLILFIVFALGATYVPGGTNRAAILTPTLVAVPLMAYGIYVFLHQQDASEHVADETHSVRPGREWGMLGVGLVIITVGVEGMVQGALSLGVIFDTPTFLWGLTVIAAGTSLPDAFVSVRAAKDDDSVTSLTNVLGSNTFNLLVAIPVGVLLAGRATIDFLVAIPTMGFLGAATLVFIVFIRTDLELTDREAYTLLGLYVVFVCWMALESVGLIETVSGI	failed
MLVSEAVLPLLFYGILTPVYQVILRGKISNVKGFYLAWITAPFLVGYFFYSTLVEVFLLLIFNIIGYIIVLKNKYKYIFPLLLFSAVIIQIFYILTTLHTIHG	failed
MSNEDNVRQETKNKKEKLRLSFPETRFMKFMGGKDLLFALIMLILIGIAIFIFDQVSYIFKPFIIVFNTIVAPIIVSIILYYLFNPLVNLMERYNISRLWGVIILFLVIIGVIALAINLLIPVIGTQFKSFGNNFPHYVDKVNQFIDNLTRNSLISNFYGQIQEQLDALANKLPSMVSDYFNGFGSKVKNFAEAIVNVGVVIATTPFVLFFMLKDSHHFKEYSTKLMPPKFRKDYHDLLDKMSVQVGSYIQGQIIVSFCIGILLFIGYSIIGLDYSLILASIAAVTSVVPYLGPTIAISPAIIIALITSPIMLLKLIIVWTAVQFIEGHFISPNIMGKTLKIHPLTIIFILLSAGNLLGVVGVILGIPAYAILKVLVSHLYSMYKRRYNKYYGDDAGEYEITNDEQIR	failed
MTDKKDFAASEHNNNDNIHAEVVPRQGISIIWFVPFIALIFGLWLTAKVVSEQGTFITIEFDNGSGIIPNKTEIRYKGLVTGLVKKVVPSADLQRVIAEVEISKNFTDYLTENTRFWLVSADISLQGVSGLDTLISGSYITIMPDTNQEADSQDHFVALTEAPTLDMSTPGLHLTLHTDVLGSISENSPISFKQIPIGHVTGYHYKESSKKIGINIYIKPEFAHLVKENSLFYNTSGVQVTASLTGGVKVNTESLASIMAGGISVDNLSYQTELAPAKNGQTFPLHADFQSAEMGHEVELTLEWNSGIDHNAAILFQGLTIGVIESFSKIDPVSRKITATAKVNPRVVPYLTDQSQFYIVAPQISLAGLTNAKTLLTGNYLSIRPSLAGNPSNKFNVFSSKPPYKYTEPGLHLMLTSSDRSSLQIGSNVYYKQQVVGNIQAIETTAPERHLIHIHVQPKFSHYVNHSSRFYNNSGVKISANLLGVDIQAQSLQSILTGGIAFTSQNSTQESQKKLVKNGDSFSLYANNKLAEQNISFTLNYMASEHISSDTRLLYRGIEIGAIHQTKIQGNKQQLQLGLLPEYEHILKADTQFYIVKPNLSLSGASDTDALFGGTYITFNLGQGKAKNQFTLFSQPPVKLASSPGLQLSLSTDHANVATPGSAISYRGITIGQVDNVSLNKIDDEIKVNITIDEEHRGLLKSTSRFYNAGGMTISGGLSDFVVKTESIDAILRGGISFYNPEVLLPTSLITNTQVEELSNFTLFKHEEHAKDAGQTISIHFNDISGLKVNTKVIYQEQTLGTIERLIFTADKVGVTALVLLNDSGSQFARKGTKFWKIEPQIGLVGSKNVAALLDGAFIGLLPSHNVEAKLKNEFEALELAPTVEQLSYGLNIKLTTARLGSVRVGNPVLYRQIKVGKVIGIDLSATADQVNIFINIAKRYAPLVNGNSQFWNTSGINIEASIFSGINIDSESIETLIAGGIAFATPDIDENNDKEQNDETKSLPASFILHQDVDEDWLEWQPKIAINNQTTSAE	failed
MSLLLCDIGNSNANFLDDNKYFTLNIDQFLEFKNEQKIFYINVNEHLKEHLKNQKNFINLEPYFLFDTIYQGLGIDRIAACYTIEDGVVVDAGSAITIDIISNSIHLGGFILPGIANYKKIYSHISPRLKSEFNTQVSLDAFPQKTMDALSYGVFKGIYLLIKDAAQNKKLYFTGGDGQFLANYFDHAIYDKLLIFRGMKKIIKENPNLLYEGHHHHHH	not failed
MWESKFVKEGLTFDDVLLVPAKSDVLPREVSVKTVLSESLQLNIPLISAGMDTVTEADMAIAMARQGGLGIIHKNMSIEQQAEQVDKVKRSESGVISDPFFLTPEHQVYDAEHLMGKYRISGVPVVNNLDERKLVGIITNRDMRFIQDYSIKISDVMTKEQLITAPVGTTLSEAEKILQKYKIEKLPLVDNNGVLQGLITIKDIEKVIEFPNSAKDKQGRLLVGAAVGVTADAMTRIDALVKASVDAIVLDTAHGHSQGVIDKVKEVRAKYPSLNIIAGNVATAEATKALIEAGANVVKVGIGPGSICTTRVVAGVGVPQLTAVYDCATEARKHGIPVIADGGIKYSGDMVKALAAGAHVVMLGSMFAGVAESPGETEIYQGRQFKVYRGMGSVGAMEKGSKDRYFQEGNKKLVPEGIEGRVPYKGPLADTVHQLVGGLRAGMGYCGAQDLEFLRENAQFIRMSGAGLLESHPHHVQITKEAPNYSL	not failed
MENVSDDRFAEMVWEAVSGGATLKDVHGIPQDMMEGLYAHAYDFYHKGRLDEAETFFRFLCIYDFYNPDYIMGLAAVCQLKKQFQKAVDLYAVAFALSKNDYRPVFFTGQCQLFMRKAAKARQCFELVCEQSGLEHHHHHH	failed
EVILGDGIFPLTALAVGKDDRAFAVIRTAGGQAPHPDVDFPELSSTGLLLSSLKPADRALLPEGTPDREVSIDLGGQMMPYEWRILTDGQSSSATVQEGQRLRMVMRNRTMMPHPMHIHGHTWALPGSGGLRKDTVLLRHGETMIADLIADNPGEWAFHCHNAYHMETGMLSSLRYE	failed
MVLKRKGLLIILDGLGDRPIKELNGLTPLEYANTPNMDKLAEIGILGQQDPIKPGQPAGSDTAHLSIFGYDPYETYRGRGFFEALGVGLDLSKDDLAFRVNFATLENGIITDRRAGRISTEEAHELARAIQEEVDIGVDFIFKGATGHRAVLVLKGMSRGYKVGDNDPHEAGKPPLKFSYEDEDSKKVAEILEEFVKKAQEVLEKHPINERRRKEGKPIANYLLIRGAGTYPNIPMKFTEQWKVKAAGVIAVALVKGVARAVGFDVYTPEGATGEYNTNEMAKAKKAVELLKDYDFVFLHFKPTDAAGHDNKPKLKAELIERADRMIGYILDHVDLEEVVIAITGDHSTPCEVMNHSGDPVPLLIAGGGVRTDDTKRFGEREAMKGGLGRIRGHDIVPIMMDLMNRSEKFGA	not failed
MEIFLWKDNRFHHQLRLLWHMCRGRNGTACLLLMKHFAAVRYLKLCTNHLWEVAGNMMNSNMNRRNVQYRQDRQPMPQPAVQPQCQPSCQTCPGTCNDGSMMTGNNGNPQMMPAGGPGPERRPMPVPDHQTLMNEIYQLGFAIVETVLYLDTHPSDADALNYYNQIKRRYSHVMEMYSREYGPLLNTNVMNDNYWSWVATPMPWEVEGC	failed
MLCLTKKRHGLRIEIPPMPILPARPLKYLLASIIALTAGGPDIAVAQAPDSVISQPGTAPASSFRTDRLPGGDVKPSDGVGVFDRMGAKLPDLPPEKDYKGPIDEAYGAYQRGYYLTAMDKALPRAQLGDPAAQTLIGEILSQGLGVKKDVKGAAFWYGKAAEGGDPAAMFKYALMLMEGQGVPRDKVKADDYMRKAAEAGNPSAEFNWAQIVVADNPGEKGLKLALPFYEKSAEQGIADSQYAVAQIYATLKDLPEEKKRLAREWMARAARAGFDTAELDLGIWLVNGVGGPKDYVKGFEWLKLAANGGNVVAQNKLAHLYINAIGTPPNPVEAAKWYVLSRRAGLADPSLEDFYLGIEDDQQKAAIDAANKFRRR	failed
QKQYWVCNSSDASISYTYCDKMQYPISINVNPCIELKGSKGLLHIFYIPRRDLKQLYFNLYITVNTMNLPKRKEVICRGSDDDYSFCRALKGETVNTTISFSFKGIKFSKGKYKCVVEAISGSPEEMLFCLEFVILHQPNSN	failed
MSLTTYDTQPSTLIRNAAAIMTGGRGTADDPSRVPGPDIRIVGDTIDAIGALAPRPGETIVDATDCVIYPAWVNTHHHLFQSLLKGEPAGLDATLTPWLAATPYRFRALFDERRFRLAARIGLIELARSGCATVADHNYVYYPGMPFDSSAILFEEAEKLGLRFVLLRGGATQTRQLEADLPTALRPETLDAYVADIERLAARYHDASPRAMRRVVMAPTTVLYSISPREMRETAAVARRLGLRMHSHLSETVGYQDSAYSMYGKSPVAFCGEHDWLGSDVWYAHLVKVDADEIALLAQTGTGVAHCPQSNGRLGSGICPVREMADAGVPVSIGVDGAASNEAADMISEVHMTWLAQRARLGMLAQPAYRGGSFEGGAGAASIAEVIHWGTAGGARVMGLDEVGKVAVGYAADIAVYRLDDPRYFGLHDPAIGPVASGGRPSVMALFSAGKRVVVDDLIEGVDIKELGGEARRVVRELLREVVVEGHHHHHH	not failed
MRQYPRWYYDEFKQSGADYADIEEVNTYDLRMQNLRNIENESNRIRELLKLKKSDVVLEIGTGTGELALNISAHCKQVIAIDVSKMMINFARRKAESQNKTNIQFYNAGFLTYENHDELFDVIVTQLALHHLPDYWKMMALRRIYGMLKEEGKFYLHDVVFPSSIQNYDSYFDKIITDLEISAGDKIAEETEIHIKEEFSTLDWVMEGLLTGVGFYIEYIKYDGFMASYICKK	failed
MSSNNINSIISKIQQKNTATVITVGNYKGGAGKTTNVVLLAYKLAKKGLKVCVLDLDPQSNATKSLLLTKSSLYQDEVVTIEKTLMTGISEKNLDGLEVKIMDNLYLLPSYIDFEDFPKYLYKNTSNQREEDYYLKNIFTPLQGKYDIVLIDVPPMSKAVTRNAVICSDYVLISLQTHERSLSGAESYVEELNKLHNEYDLDLEVVGVLPVIHKNNGSVDQYVMEVAKETFGEDNLFENVVPQMERIKRFDVNGITDKDRHDQKVLNLYDKVSDELLDRINYFEEEKEGAING	not failed
